What was measured:
[1] = molecular target: Monodelphis domestica von Willebrand Factor (VWF) (Monodelphis domestica)
[2] = molecular target: human von Willebrand Factor (VWF) (human) (UniProt P04275)

“botrocetin from Bothrops jararaca (complex)” showed a reduction in the overall extent of platelet adhesion to collagen under flow (60 dyn/cm^2, 10 min) in opossum PRP with 4 ug/mL botrocetin, compared to the negative control [1] of 39% and a reduction in the overall extent of platelet adhesion to collagen under flow (60 dyn/cm^2, 10 min) in human PRP with 4 ug/mL botrocetin, compared to the negative control [2] of 66%.
